Our source for the stoichiometry N (units (HA molecules per complex)) values is publication PMC4895014.

Values joined by “and” are separate entries in the source; they are usually repeats but may differ in a detail not shown here. Identical values can stand only once.

The test addresses recombinant full-length H7 hemagglutinin of A/Anhui/1/2013 (H7N9) influenza virus (influenza A virus A/Anhui/1/2013 (H7N9)). Put plainly: […]; 500 ug/ml in PBS, […].

For the substance “recombinant full-length H7 hemagglutinin of A/Anhui/1/2013 (H7N9) influenza virus (natural protein)”, the stoichiometry N (units (HA molecules per complex)) is 6 and 7 and 8.
